The text below walks through data of paper PMC6024848.

A word on the stoichiometry N: it is the number of molecules, sites or subunits per partner or assembly.

This test addresses AcLys, putative Acinetobacter baumannii AB 5075 prophage endolysin (Acinetobacter baumannii AB 5075 (prophage region)). In words: SEC; gel permeation (size-exclusion) chromatography of recombinant AcLys; Superose 12 HR10/30 in 50 mM Bis-Tris pH 6.0 named for the purification step; monomer and dimer fractions redistribute to the mixture 3-4 h after separation; more monomer in dilute solution; beta-mercaptoethanol does not affect dimerization; dimer to monomers. A general note: In gel filtration, larger molecules generally elute earlier.

“AcLys, putative Acinetobacter baumannii AB 5075 prophage endolysin (enzyme)”: the stoichiometry N turned out to be 2.
